Reference: patent publication US20220204630A1 (SUNSHINE LAKE PHARMA, published 2022)

B1: 4H4 chimeric antibody (antibody, human IgG4 S228P, kappa, F234A L235A, V domains shown)
VH: EVQLQQSGPELVKPGASMKISCKASGYSFTGYTMNWVKQSHGKNLEWIGLINPYNGGTRYNQKFKGKATLTVDKSSSTAYMELLSLTSEDSAVYYCASSSYRNDGNWYFDVWGAGTTVTVSS
VL: DIVMTQSPAIMSASPGEKVTMTCSASSSVSYMHWYQQKSGTSPKRWIYDTSKLASGVPARFSGSGSGTSYSLTISSMETEDAATYYCQQWSSNPPTFGGGTKLELKR
notes: expressed in CHO cells
B2: 23E12 chimeric antibody (antibody, human IgG4 S228P, kappa, F234A L235A, V domains shown)
VH: QVQLQQSGAELVRPGTSVKISCKASGYAFTNYWLGWMKQRPGHGLEWIGDFYPRTGNTFYNENFKGKVTLTADKSSNTAYMQLSSLTSEDSAVYLCARAGTGFDYWGQGTTLTVSS
VL: SIVMTQSPKSMSMSVGERVTLSCKASENVGGYVSWYQQKPDQSPKLLIYGASSRHTGVPDRFTGSGSETDFTLTISSVQAEDLAAYHCGQNYIYPFTFGGGTKLEIKR
notes: expressed in CHO cells
B3: 27H3 chimeric antibody (antibody, human IgG4 S228P, kappa, F234A L235A, V domains shown)
VH: QVQLQQSGAELMKPGASVKISCKTTGYRFSSYWIEWVKQRPGHGLEWLGEILPGRGIINYNENFRGKATFTADTSSNTAYVQLSSLTSEDSAVYFCARTDPPYFGVWGAGTTVTVSS
VL: QAVVTQESALTTSPGETVTLTCRSSTGAVTISNYANWVQEKPDHLFTGLIGGTNNRPPGVPARFSGSLIGDKAALTITGAQTEDEAIYFCVLWYSNHWVFGGGTKLTVLR
notes: expressed in CHO cells
B4: 21E5 chimeric antibody (antibody, human IgG4 S228P, kappa, F234A L235A, V domains shown)
VH: QVQLQQSGAELMKPGASMKISCKATGYTFSTYWIEWVKQRPGHGLEWIGENLPGRHITNYNEKFKGKATFTADTSSNTAYMQLSSLTSEDSAVYYCARGRGTYYFDYWGQGTPLTVSS
VL: DIVMTQAAFSTPVTLGTSASISCRSSQSLLHSNGITYLYWYLQKPGQSPQLLIYQMSNLASGVPDRFSSSGSGTDFTLRISRVEAEDVGVYYCAQNLEFPFTFGSGTKLEIKR
notes: expressed in CHO cells

target: T1, TrKA receptor protein coated in ELISA (Examples 11 and 16) (human, UniProt P04629 33-423, limits assumed); test: competition ELISA: antibody titrated against biotinylated NGF binding to TrkA, OD450
T1 construct: also called Human-TrKA
T1 sequence (P04629 33-423 limits assumed): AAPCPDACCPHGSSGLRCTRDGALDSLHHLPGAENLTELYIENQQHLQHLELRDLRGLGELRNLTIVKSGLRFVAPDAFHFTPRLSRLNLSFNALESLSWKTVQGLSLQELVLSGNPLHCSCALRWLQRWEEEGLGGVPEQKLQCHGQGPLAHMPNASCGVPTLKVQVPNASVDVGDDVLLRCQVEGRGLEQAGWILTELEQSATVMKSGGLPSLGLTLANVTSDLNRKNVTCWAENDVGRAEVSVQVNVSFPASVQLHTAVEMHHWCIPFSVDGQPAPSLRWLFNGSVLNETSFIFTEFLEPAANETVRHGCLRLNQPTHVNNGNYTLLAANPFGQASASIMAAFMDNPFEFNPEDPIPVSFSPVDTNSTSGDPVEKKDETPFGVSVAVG

IC50	Binder
0.551 µg/mL	B1
0.213 µg/mL	B2
0.11 µg/mL	B3
0.294 µg/mL	B4

target: T2, TrkA protein on HEK-293T-TrkA cells or NIH-3T3-TrkA cells (human, UniProt P04629 33-796); test: cell-based or functional assay
T2 sequence (P04629 33-796): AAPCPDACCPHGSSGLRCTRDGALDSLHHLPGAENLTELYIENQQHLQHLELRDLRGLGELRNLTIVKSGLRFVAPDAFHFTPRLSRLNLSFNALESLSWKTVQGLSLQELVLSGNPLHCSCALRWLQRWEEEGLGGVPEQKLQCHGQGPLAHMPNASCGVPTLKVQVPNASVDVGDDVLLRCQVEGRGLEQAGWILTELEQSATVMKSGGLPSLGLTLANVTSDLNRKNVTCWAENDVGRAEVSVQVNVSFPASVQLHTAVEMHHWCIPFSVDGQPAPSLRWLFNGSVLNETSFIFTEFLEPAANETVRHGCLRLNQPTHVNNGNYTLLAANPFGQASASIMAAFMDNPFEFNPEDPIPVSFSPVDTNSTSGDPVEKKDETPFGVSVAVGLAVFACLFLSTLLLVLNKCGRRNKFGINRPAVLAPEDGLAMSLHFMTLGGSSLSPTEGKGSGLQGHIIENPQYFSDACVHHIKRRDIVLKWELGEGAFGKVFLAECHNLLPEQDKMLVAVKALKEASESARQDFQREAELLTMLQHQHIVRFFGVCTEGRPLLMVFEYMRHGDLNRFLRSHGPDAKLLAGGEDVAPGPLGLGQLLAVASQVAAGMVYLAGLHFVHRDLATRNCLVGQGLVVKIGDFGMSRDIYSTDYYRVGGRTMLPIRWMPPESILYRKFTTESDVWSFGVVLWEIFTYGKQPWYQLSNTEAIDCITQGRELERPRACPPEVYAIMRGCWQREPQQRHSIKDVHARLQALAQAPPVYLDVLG

IC50; p-TrkA level by AlphaLISA in NGF-stimulated NIH3T3-TrkA stable cell line	Binder
0.129 µg/mL	B1
0.0537 µg/mL	B2
0.0437 µg/mL	B3
0.0856 µg/mL	B4

target: T3, Mouse-TrKA receptor on the surface of HEK293T-Mouse-TrKA cells (mouse, UniProt Q3UFB7 34-799); test: flow cytometry competition on HEK293T-Mouse-TrkA cells; competitor biotinylated Mouse-NGF
T3 construct: whole, on cells; also called Mouse-TrkA protein on HEK293T-Mouse-TrkA cells
Description: Mouse-NGF was biotinylated. Mouse-NGF could bind to the extracellular region of Mouse-TrkA protein on HEK293 T-Mouse-TrkA cells, and anti-Mouse-TrkA monoclonal antibody could also bind to the extracellular region of Mouse-TrkA protein on HEK293T-Mouse-TrkA cells. A competitive experiment was designed to detect the binding of Mouse-NGF to the extracellular region of Mouse-TrkA protein on HEK293T-Mouse-TrkA cells under different concentrations (20 μg/mL, 10 μg/mL, 5 μg/mL, 2.5 μg/mL, 1.25 μg/mL, 0.625 μg/mL, 0.313 μg/mL, 0.156 μg/mL, 0.078 μg/mL, 0.039 μg/mL, 0.019 μg/mL) of test antibodies by flow cytometry, thus the inhibition effect of test antibodies on the binding of Mouse-NGF and Mouse-TrKA was investigated. In FIG. 12, the parent % value reflects the Mouse-NGF signal that binds to the extracellular region of the Mouse-TrKA protein on the HEK293T-Mouse-TrkA cell.

T3 sequence (Q3UFB7 34-799): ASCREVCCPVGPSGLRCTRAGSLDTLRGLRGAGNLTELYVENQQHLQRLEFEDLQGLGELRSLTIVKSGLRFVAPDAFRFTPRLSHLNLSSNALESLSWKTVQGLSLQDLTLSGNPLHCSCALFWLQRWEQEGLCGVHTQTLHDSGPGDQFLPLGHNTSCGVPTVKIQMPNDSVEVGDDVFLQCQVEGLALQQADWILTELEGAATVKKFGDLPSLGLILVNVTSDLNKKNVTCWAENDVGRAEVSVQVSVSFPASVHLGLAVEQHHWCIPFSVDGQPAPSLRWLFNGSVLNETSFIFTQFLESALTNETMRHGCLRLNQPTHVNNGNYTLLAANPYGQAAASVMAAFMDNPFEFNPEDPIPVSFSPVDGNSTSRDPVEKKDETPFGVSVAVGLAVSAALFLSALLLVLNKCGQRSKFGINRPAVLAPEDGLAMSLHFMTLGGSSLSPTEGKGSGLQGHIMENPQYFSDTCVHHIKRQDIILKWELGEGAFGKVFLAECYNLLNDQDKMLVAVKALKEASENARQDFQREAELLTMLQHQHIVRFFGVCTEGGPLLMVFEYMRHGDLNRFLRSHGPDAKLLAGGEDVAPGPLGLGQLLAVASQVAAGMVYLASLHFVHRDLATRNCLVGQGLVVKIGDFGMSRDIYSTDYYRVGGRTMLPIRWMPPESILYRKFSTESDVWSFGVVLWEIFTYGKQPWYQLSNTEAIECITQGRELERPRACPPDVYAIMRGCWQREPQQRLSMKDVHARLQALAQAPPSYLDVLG

IC50	Binder
0.0515 µg/mL	B2

target: T1, TrKA receptor protein coated in ELISA …; test: ELISA plateau, antibody up to 20 µg/mL on TrKA
Description: The TrkA receptor family belongs to receptor tyrosine kinases (RTKs), including TrkA, TrkB, and TrkC, which have high homology. TrkA is a receptor tyrosine kinase of nerve growth factor (NGF) that selectively binds to NGF and is a functional receptor for NGF. In addition to the high-affinity receptor TrkA, NGF can also bind to its low-affinity receptor p75. In the test, the binding of test antibodies at different concentrations (20 μg/mL, 10 μg/mL, 5 μg/mL, 2.5 μg/mL, 1.25 μg/mL, 0.625 μg/mL, 0.313 μg/mL, 0.156 μg/mL, 0.078 μg/mL, 0.039 μg/mL, 0.019 μg/mL) to TrKA, TrKB, TrKC, and P75 respectively was detected by the ELISA method, and the specificity of the test antibody binding to the target TrKA was evaluated. In the FIG. 8, at a certain antibody concentration, the OD₄₅₀ value reflects the binding strength of the antibody to the protein. The larger the reading, the stronger the binding of the antibody to the protein. […] It can be seen that the specificity of the binding of the test antibodies to the target TrKA is very good.

OD450	Binder
~3 OD450	B1
~3 OD450	B2
~3 OD450	B3
~3 OD450	B4

target: T2, TrkA protein on HEK-293T-TrkA cells or …; test: flow cytometry, antibody titrated on HEK-293T-TrKA cells, Parent %
Description: (§1) In FIG. 7, the EC₅₀ (half-binding concentration) value reflects the affinity of the antibody. The smaller the EC₅₀ value, the higher the affinity of the antibody.

EC50	Binder
0.211 µg/mL	B1
0.0443 µg/mL	B2
0.0447 µg/mL	B3
0.0575 µg/mL	B4

target: T4, TRKA protein with a histidine tag (human, UniProt P04629 33-423, limits assumed); test: BLI (Fortebio Octet RED96), His-tagged TRKA on Ni-NTA sensor, antibody 80-2.93 nM
T4 construct: it is put last here only for order; also called TRKA (50 µg/ml, 75 kDa, provided by HEC Labs); not shown: histidine tag
Description: They were added to each well of the sample plate. […] The KD value is the equilibrium dissociation constant between the antibody and its antigen, and the KD value is inversely proportional to the affinity. The KD value is related to the antibody concentration (the amount of antibody required for a particular experiment). The lower the KD value (the lower the concentration), the higher the affinity of the antibody. High-affinity antibodies are generally considered to be in the low nanomolar range (10⁻⁹).

T4 sequence (P04629 33-423 limits assumed): as the sequence (P04629 33-423 limits assumed) above

Kd	koff	kon	Binder
1.68 nM	0.000234 s⁻¹	139000 M⁻¹ s⁻¹	B1
0.057 nM	0.000109 s⁻¹	1.9e+06 M⁻¹ s⁻¹	B2
0.178 nM	0.000279 s⁻¹	1.57e+06 M⁻¹ s⁻¹	B3
0.173 nM	0.000175 s⁻¹	1.01e+06 M⁻¹ s⁻¹	B4

target: T2, TrkA protein on HEK-293T-TrkA cells or …; test: flow cytometry on HEK-293T-TrKA cells
Description: as §1

EC50	Binder
< 1.5 µg/mL	B1
< 1.5 µg/mL	B2
< 1.5 µg/mL	B3
< 1.5 µg/mL	B4

target: T5, Mouse-TrKA protein (mouse, UniProt Q3UFB7 34-420, limits assumed); test: ELISA, antibody titrated on Mouse-TrKA protein, OD 450
T5 construct: also called Mouse-TrKA receptor
Description: Test antibody (23E12, 21E5) samples were diluted with PBS buffer solution to 11 concentration gradients (20 μg/mL, 10 μg/mL, 5 μg/mL, 2.5 μg/mL, 1.25 μg/mL, […], 0.313 μg/mL, 0.156 μg/mL, 0.078 μg/mL, 0.039 μg/mL, 0.019 μg/mL). The binding of the test antibody to the Mouse-TrKA receptor at each concentration gradient was detected by the ELISA method, thus the binding ability of the test antibody to the Mouse-TrKA protein was detected. In FIG. 9, at a certain antibody concentration, the OD₄₅₀ value reflects the binding strength of the antibody to the protein. The larger the reading, the stronger the binding of the antibody to the protein. […] It can be seen that the test antibodies 23E12, 21E5, and Mouse-TrKA protein all have good binding ability.

T5 sequence (Q3UFB7 34-420 limits assumed): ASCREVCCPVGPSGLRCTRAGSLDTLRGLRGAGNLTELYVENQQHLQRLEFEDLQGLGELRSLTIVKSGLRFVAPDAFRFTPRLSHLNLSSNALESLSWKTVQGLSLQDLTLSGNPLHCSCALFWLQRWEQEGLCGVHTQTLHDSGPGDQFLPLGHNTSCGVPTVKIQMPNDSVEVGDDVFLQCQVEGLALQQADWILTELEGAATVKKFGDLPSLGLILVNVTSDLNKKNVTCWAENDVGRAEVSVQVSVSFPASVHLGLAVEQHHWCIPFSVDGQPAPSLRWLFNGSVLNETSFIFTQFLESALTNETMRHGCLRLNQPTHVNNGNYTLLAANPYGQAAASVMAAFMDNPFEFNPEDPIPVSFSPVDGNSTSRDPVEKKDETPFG

EC50	Binder
0.0208 µg/mL	B2
0.0954 µg/mL	B4

target: T2, TrkA protein on HEK-293T-TrkA cells or …; test: flow cytometry competition: antibody titrated against biotinylated NGF binding to HEK-293T-TrkA cells, % parent

IC50	Binder
2.04 µg/mL	B1
0.426 µg/mL	B2
0.369 µg/mL	B3
0.547 µg/mL	B4

target: T3, Mouse-TrKA receptor on the surface of …; test: flow cytometry on HEK293T-Mouse-TrKA cells
Description: The test antibody 23E12 samples were diluted with PBS buffer to 11 concentration gradients (20 μg/mL, 10 μg/mL, 5 μg/mL, 2.5 μg/mL, 1.25 μg/mL, 0.625 μg/mL, 0.313 μg/mL, 0.156 μg/mL, 0.078 μg/mL, 0.039 μg/mL, 0.019 μg/mL), and the binding of the test antibody to the Mouse-TrKA receptor on the surface of HEK293T-Mouse-TrKA cells at each concentration gradient was detected by flow cytometry. The binding ability of the antibody to Mouse-TrKA protein was tested. In FIG. 10, the EC₅₀ (half the binding concentration) value reflects the binding capacity of the antibody. The smaller the EC₅₀ value, the stronger the binding capacity of the antibody. […] It can be seen that the test antibody 23E12 has a good binding ability with the Mouse-TrKA receptor on the surface of HEK293T-Mouse-TrKA cells.

EC50	Binder
0.0801 µg/mL	B2
